One block for each binder: values may come before it.
How the values were obtained:
[1] = biological target: T1, aCls (Comptech A104) (UniProt P09871 16-688); test: ELISA, target coated at 2.5 µg/mL, biotinylated antibody titrated, streptavidin-HRP, OD450 background subtracted
T1 construct: the active enzyme is a two-chain form of this precursor; also called aC1s
T1 sequence (looked up): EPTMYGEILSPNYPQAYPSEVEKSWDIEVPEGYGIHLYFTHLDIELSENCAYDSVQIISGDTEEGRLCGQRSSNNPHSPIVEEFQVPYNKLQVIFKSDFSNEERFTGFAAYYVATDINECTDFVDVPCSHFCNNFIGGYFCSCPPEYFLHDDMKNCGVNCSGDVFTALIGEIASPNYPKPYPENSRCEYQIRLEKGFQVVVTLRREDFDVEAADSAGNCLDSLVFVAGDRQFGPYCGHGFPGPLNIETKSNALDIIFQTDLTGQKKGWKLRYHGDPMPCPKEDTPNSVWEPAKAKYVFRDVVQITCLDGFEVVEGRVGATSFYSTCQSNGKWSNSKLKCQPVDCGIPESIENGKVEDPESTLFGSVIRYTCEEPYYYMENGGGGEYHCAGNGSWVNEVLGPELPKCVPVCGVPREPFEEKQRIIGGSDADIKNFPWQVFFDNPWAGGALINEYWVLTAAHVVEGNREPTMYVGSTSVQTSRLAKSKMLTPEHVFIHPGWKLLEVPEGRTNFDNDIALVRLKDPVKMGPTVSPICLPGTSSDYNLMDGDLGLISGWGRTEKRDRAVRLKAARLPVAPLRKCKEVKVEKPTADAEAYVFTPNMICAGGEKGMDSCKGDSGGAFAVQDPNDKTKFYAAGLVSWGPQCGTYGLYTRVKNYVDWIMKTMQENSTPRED
Procedure: (§1) Briefly, complement and plasma proteins were coated onto ELISA plates at 2. 5 μg/mL in PBS overnight at 4° C. Plates were then blocked with Casein for 1 hour at room temperature and washed four times with 1× DPBS/0.05% Tween-20 followed by a single wash with 1× DPBS. Serial dilutions starting at 50 μg/ml of biotinylated chimeric parent or VH6/VK7-IgG4v2 were added to the plate in PBS/0.1%casein/0.1%Tween-20 and incubated for 2 hours at room temperature. Plates were washed as described and a 1:10,000 dilution of streptavidin-HRP (Southern Biotech 7100-05) in PBS/0.1% casein/0.1% Tween-20 was added to the plate and incubated for 30 minutes at room temperature. Plates were again washed and Ultra TMP ELISA (Thermo 34028) was added to the plate for 1 minute, followed by stop solution). OD 450 nm was read in a plate reader and background at 620 nm was subtracted. Both the chimeric parent (FIG. 8A) and the humanized variant (FIG. 8B) show complete specificity for factor Bb.

[2] = biological target: T2, C1r (Comptech A102) (UniProt P00736 18-705); test: as above
T2 sequence (looked up): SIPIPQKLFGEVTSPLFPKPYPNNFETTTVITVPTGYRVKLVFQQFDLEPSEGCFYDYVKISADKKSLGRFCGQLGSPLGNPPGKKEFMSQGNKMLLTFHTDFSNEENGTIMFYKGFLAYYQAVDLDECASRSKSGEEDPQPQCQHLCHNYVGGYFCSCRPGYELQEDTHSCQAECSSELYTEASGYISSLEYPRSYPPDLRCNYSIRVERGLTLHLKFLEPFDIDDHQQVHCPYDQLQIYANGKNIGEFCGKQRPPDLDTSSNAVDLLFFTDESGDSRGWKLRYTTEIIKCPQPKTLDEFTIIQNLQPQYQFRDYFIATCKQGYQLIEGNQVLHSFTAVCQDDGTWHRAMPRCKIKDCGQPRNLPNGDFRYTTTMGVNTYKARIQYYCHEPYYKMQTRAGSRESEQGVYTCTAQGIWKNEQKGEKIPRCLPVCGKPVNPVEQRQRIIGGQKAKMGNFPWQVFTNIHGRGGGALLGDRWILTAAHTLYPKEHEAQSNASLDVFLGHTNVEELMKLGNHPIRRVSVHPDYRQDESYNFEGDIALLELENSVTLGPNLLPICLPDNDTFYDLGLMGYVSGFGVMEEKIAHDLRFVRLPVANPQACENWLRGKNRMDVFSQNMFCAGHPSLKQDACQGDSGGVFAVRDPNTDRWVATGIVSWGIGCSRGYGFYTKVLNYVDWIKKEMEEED
Procedure: as §1

[3] = biological target: T3, C2a (prepared from C2) (UniProt P06681 244-752, limits assumed); test: as above
T3 construct: domain: C2a
T3 sequence (looked up): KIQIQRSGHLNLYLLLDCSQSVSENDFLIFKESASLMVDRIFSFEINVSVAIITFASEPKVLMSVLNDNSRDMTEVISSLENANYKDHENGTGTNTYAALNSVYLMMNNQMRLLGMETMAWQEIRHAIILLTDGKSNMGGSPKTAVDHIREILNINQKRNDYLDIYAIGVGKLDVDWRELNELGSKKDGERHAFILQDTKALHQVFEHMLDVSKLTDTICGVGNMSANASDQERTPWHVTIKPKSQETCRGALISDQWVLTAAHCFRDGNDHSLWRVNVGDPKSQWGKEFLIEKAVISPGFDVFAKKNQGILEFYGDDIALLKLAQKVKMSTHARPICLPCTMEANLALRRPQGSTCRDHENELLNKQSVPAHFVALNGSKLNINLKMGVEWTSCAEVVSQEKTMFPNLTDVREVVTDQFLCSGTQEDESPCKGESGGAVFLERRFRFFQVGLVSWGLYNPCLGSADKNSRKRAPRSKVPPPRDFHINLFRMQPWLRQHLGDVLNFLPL
Procedure: as §1

[4] = biological target: thrombin (EMD Millipore 605195) (UniProt P00734 328-622); test: as above
Procedure: as §1

[5] = biological target: factor D (Competech A136) (UniProt P00746 26-253); test: as above
Procedure: as §1

[6] = biological target: T4, Homo sapiens factor Bb protein (human, UniProt P00751 260-764); test: ELISA, factor Bb coated at 2.5 µg/mL, biotinylated antibody titrated, streptavidin-HRP, OD450 background subtracted
T4 construct: Bought from CompTech (A155); also called complement factor Bb; human factor Bb
Procedure: as §1

T4 sequence (P00751 260-764 limits assumed): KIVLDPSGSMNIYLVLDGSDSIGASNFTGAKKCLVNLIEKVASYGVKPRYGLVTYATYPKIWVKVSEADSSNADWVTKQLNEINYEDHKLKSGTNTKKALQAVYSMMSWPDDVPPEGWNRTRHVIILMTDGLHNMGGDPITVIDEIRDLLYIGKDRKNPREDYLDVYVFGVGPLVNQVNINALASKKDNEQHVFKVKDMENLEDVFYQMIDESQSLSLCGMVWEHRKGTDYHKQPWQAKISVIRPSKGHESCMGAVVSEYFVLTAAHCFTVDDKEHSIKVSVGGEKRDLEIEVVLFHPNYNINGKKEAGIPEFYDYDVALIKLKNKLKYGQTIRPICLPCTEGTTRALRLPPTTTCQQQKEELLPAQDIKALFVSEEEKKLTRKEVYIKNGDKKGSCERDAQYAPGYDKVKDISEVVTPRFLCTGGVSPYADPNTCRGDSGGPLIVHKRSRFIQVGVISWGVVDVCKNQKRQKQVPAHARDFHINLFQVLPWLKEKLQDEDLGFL
Chain of factor D (Competech A136) (P00746 26-253 limits assumed): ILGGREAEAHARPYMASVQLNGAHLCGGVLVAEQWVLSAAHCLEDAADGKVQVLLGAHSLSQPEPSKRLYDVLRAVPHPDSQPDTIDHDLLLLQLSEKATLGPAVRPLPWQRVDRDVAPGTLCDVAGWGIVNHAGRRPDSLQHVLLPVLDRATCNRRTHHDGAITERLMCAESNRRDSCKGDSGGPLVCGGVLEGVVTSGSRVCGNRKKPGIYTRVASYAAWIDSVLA

EC50 (read off the curve) [6]: ~0.01 µg/mL
B1: VH0/Vκ0 (Chimeric) (antibody, V domains shown)
VH: EVQLVESGGALVKPGGSLKLSCAASGFTFSNYAMSWVRQTPEKRLEWVATISNRGSYTYYPDSVKGRFTISRDNAKNTLYLQMSSLRSEDTALYYCARERPMDYWGQGTSVTVSS
VL: DIVMTQSHKFMSTSVGDRVSITCKASQDVGTAVAWYQQKPGQSPKLLIYWASTRHTGVPDRFTGSGSGTDFTLTITNVQSEDLAVYFCHQHSSNPLTFGAGTKLELK
notes: also called chimeric antibody
binding result [1]: no binding (tested: about 10^5 ng/mL (log 5 on the axis))
binding result [2]: no binding (tested: about 10^5 ng/mL (log 5 on the axis))
binding result [3]: no binding (tested: about 10^5 ng/mL (log 5 on the axis))
binding result [4]: no binding (tested: about 10^5 ng/mL (log 5 on the axis))
binding result [5]: no binding (tested: about 10^5 ng/mL (log 5 on the axis))

binding result [1]: no binding
binding result [2]: no binding
binding result [3]: no binding
binding result [4]: no binding
binding result [5]: no binding
EC50 (read off the curve) [6]: ~0.02 µg/mL
B2: VH6/Vκ7-IgG4v2 (antibody)
heavy: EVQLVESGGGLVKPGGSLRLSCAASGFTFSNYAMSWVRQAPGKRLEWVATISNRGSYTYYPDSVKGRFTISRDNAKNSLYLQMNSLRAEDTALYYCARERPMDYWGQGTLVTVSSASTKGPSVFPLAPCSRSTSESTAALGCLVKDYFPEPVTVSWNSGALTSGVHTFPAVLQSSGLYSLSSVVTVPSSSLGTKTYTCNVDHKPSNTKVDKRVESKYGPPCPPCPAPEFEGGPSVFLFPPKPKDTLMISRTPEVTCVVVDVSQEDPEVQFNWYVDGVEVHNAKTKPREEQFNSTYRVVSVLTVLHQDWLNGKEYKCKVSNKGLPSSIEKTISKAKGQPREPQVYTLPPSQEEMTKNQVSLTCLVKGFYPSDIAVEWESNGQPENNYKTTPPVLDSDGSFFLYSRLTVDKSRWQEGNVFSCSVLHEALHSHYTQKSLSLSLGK
light: DIQMTQSPSTLSASVGDRVTITCKASQDVGTAVAWYQQKPGKAPKLLIYWASTRHTGVPDRFSGSGSGTDFTLTISSLQAEDFAVYFCHQHSSNPLTFGQGTKLEIKRTVAAPSVFIFPPSDEQLKSGTASVVCLLNNFYPREAKVQWKVDNALQSGNSQESVTEQDSKDSTYSLSSTLTLSKADYEKHKVYACEVTHQGLSSPVTKSFNRGEC
notes: also called VH6/VK7-IgG4v2; VH6/VK7-IgG4v2_HEK

— US20210332115A1 (Sanofi, published 2021)
